Laboratory results taken from patent publication US20060039904A1 (AstraZeneca / MedImmune, published 2006).

Key:
[1] = molecular target: T1, FcγRIIIA (soluble receptor used as analyte in the BIAcore runs) (human, UniProt P08637 17-208); assay: BIAcore run 1, IgG immobilized, soluble FcγRIIIA, Scatchard plot
[2] = molecular target: T1, FcγRIIIA (soluble receptor used as …); assay: BIAcore run 2, IgG immobilized, soluble FcγRIIIA, Scatchard plot
[3] = molecular target: T1, FcγRIIIA (soluble receptor used as …); assay: BIAcore run 1, ratio of isotherm KD values against wild type Vitaxin®
[4] = molecular target: T1, FcγRIIIA (soluble receptor used as …); assay: BIAcore run 2, ratio of isotherm KD values against wild type Vitaxin®
[5] = molecular target: T1, FcγRIIIA (soluble receptor used as …); assay: BIAcore run 1, IgG immobilized, soluble FcγRIIIA, steady-state isotherm
[6] = molecular target: T1, FcγRIIIA (soluble receptor used as …); assay: BIAcore run 2, IgG immobilized, soluble FcγRIIIA, steady-state isotherm

T1 sequence (P08637 17-208): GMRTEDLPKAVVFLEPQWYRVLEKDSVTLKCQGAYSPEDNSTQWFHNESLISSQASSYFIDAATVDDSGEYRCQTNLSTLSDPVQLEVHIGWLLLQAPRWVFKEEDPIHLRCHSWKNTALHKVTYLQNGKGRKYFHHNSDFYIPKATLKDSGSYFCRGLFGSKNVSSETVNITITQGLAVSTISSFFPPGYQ

Row | Binder | Kd [1] | Kd [2] | Fold increase over WT [3] | Fold increase over WT [4] | Kd [5] | Kd [6]
1 | Vitaxin®-1M (Vitaxin® Fc variant I332E, IgG1) (antibody, Full length IgG1 with I332E in the Fc; expressed in 293H/HEK293 cells; also called I332E Fc variant; Vitaxin® Fc (I332E) variant) heavy: not shown VL: EIVLTQSPATLSLSPGERATLSCQASQSISNFLHWYQQRPGQAPRLLIRYRSQSISGIPARFSGSGSGTDFTLTISSLEPEDFAVYYCQQSGSWPLTFGGGTKVEIK | 458 nM | 1220 nM | 6.5 fold | 7 fold | 458 nM | 1280 nM
2 | Vitaxin®-3M (Vitaxin® Fc variant S239D/A330L/I332E, IgG1) (antibody, I332E is used here; also called Vitaxin S239D/A330L/I332E) heavy: QVQLVESGGGVVQPGRSLRLSCAASGFTFSSYDMSWVRQAPGKGLEWVAKVSSGGGSTYYLDTVQGRFTISRDNSKNTLYLQMNSLRAEDTAVYYCARHLHGSFASWGQGTTVTVSSASTKGPSVFPLAPSSKSTSGGTAALGCLVKDYFPEPVTVSWNSGALTSGVHTFPAVLQSSGLYSLSSVVTVPSSSLGTQTYICNVNHKPSNTKVDKKVEPKSCDKTHTCPPCPAPELLGGPDVFLFPPKPKDTLMISRTPEVTCVVVDVSHEDPEVKFNWYVDGVEVHNAKTKPREEQYNSTYRVVSVLTVLHQDWLNGKEYKCKVSNKALPLPEEKTISKAKGQPREPQVYTLPPSRDELTKNQVSLTCLVKGFYPSDIAVEWESNGQPENNYKTTPPVLDSDGSFFLYSKLTVDKSRWQQGNVFSCSVMHEALHNHYTQKSLSLSPGK VL: EIVLTQSPATLSLSPGERATLSCQASQSISNFLHWYQQRPGQAPRLLIRYRSQSISGIPARFSGSGSGTDFTLTISSLEPEDFAVYYCQQSGSWPLTFGGGTKVEIK |  |  |  |  |  | 114 nM
